Source: the Human Domainome abundance scans (Beltran et al. 2025)
± gives the uncertainty stated by the source.

B1: Cold shock protein CspB, residues 1 to 66; numbered along this chain, P41016 (parent)
chain: MQRGKVKWFNNEKGYGFIEVEGGSDVFVHFTAIQGEGFKTLEEGQEVSFEIVQGNRGPQAANVVKL

Variants of: B1
Assay: abundance fitness (aPCA) (normalised: wild type 0, dead -1); higher = more abundant; growth selection in yeast, the domain comes from the species named
Settings: Bacillus caldolyticus
For G54L, the abundance fitness was -0.131 ± 0.052. Work on G57Q yielded an abundance fitness of -0.116 ± 0.048. Work on G57V yielded an abundance fitness of -0.238 ± 0.029. For A32G, the abundance fitness was -0.02 ± 0.037. With A32D the abundance fitness was -0.129 ± 0.055. A32S showed an abundance fitness of -0.032 ± 0.034. In the case of A32F, the abundance fitness is reported as -0.129 ± 0.058. A32W showed an abundance fitness of -0.351 ± 0.05. Work on E50C yielded an abundance fitness of -0.007 ± 0.053. Work on E50Y yielded an abundance fitness of 0.005 ± 0.059. For E50F, the abundance fitness was -0.029 ± 0.051. With E50H the abundance fitness was -0.07 ± 0.076. Variant G16T has an abundance fitness of -0.954 ± 0.087. In the case of G16E, the abundance fitness is reported as -1.16 ± 0.12. With G16S the abundance fitness was -1.01 ± 0.054. V6F showed an abundance fitness of -0.622 ± 0.051. For V6D, the abundance fitness was -1.09 ± 0.11. Variant V6T has an abundance fitness of -0.002 ± 0.048. With Q53M the abundance fitness was 0.01 ± 0.044. Work on Q53W yielded an abundance fitness of 0.007 ± 0.052. In the case of I33C, the abundance fitness is reported as -0.127 ± 0.052. For I33W, the abundance fitness was -0.462 ± 0.052. For I33D, the abundance fitness was -0.369 ± 0.057. For I33L, the abundance fitness was -0.082 ± 0.03. In the case of E12C, the abundance fitness is reported as -0.004 ± 0.049. For E12I, the abundance fitness was -0.198 ± 0.04. E12S gave an abundance fitness of 0.022 ± 0.032. In the case of F49S, the abundance fitness is reported as -0.577 ± 0.045. Work on E19H yielded an abundance fitness of 0.016 ± 0.073. For E19N, the abundance fitness was -0.003 ± 0.083. With E19V the abundance fitness was 0.002 ± 0.044. In the case of E19G, the abundance fitness is reported as 0.023 ± 0.039. With I18W the abundance fitness was -0.973 ± 0.07. I18Y showed an abundance fitness of -1.07 ± 0.18. I18C gave an abundance fitness of -0.164 ± 0.064. Variant I18K has an abundance fitness of -0.926 ± 0.078. Work on I18Q yielded an abundance fitness of -1.12 ± 0.14. Variant F38D has an abundance fitness of -0.12 ± 0.054. For F38M, the abundance fitness was -0.075 ± 0.046. In the case of F38Y, the abundance fitness is reported as -0.009 ± 0.057. With F38H the abundance fitness was -0.132 ± 0.067. F38V gave an abundance fitness of -0.044 ± 0.03. F38T gave an abundance fitness of -0.119 ± 0.064. R56P showed an abundance fitness of -0.062 ± 0.048. R56Y gave an abundance fitness of -0.131 ± 0.065. With V63N the abundance fitness was -0.528 ± 0.073. In the case of V63W, the abundance fitness is reported as -0.774 ± 0.07. With K65C the abundance fitness was -0.035 ± 0.049. Work on K65M yielded an abundance fitness of -0.078 ± 0.048. For L41F, the abundance fitness was -0.199 ± 0.047. Variant L41A has an abundance fitness of -0.111 ± 0.041. A60F showed an abundance fitness of -0.79 ± 0.078. Variant Y15D has an abundance fitness of -0.332 ± 0.072. Y15C showed an abundance fitness of -0.186 ± 0.048. Variant G35M has an abundance fitness of 0.002 ± 0.035. With G35L the abundance fitness was -0.127 ± 0.025. With G22S the abundance fitness was 0.011 ± 0.035. For G37R, the abundance fitness was -0.083 ± 0.034. In the case of G37I, the abundance fitness is reported as -0.18 ± 0.054. G37C showed an abundance fitness of -0.049 ± 0.048. Work on G37A yielded an abundance fitness of -0.082 ± 0.035. For G37P, the abundance fitness was -0.119 ± 0.048. F30T gave an abundance fitness of -0.127 ± 0.05. F30G gave an abundance fitness of -0.089 ± 0.04. F30S gave an abundance fitness of -0.047 ± 0.036. In the case of F30Q, the abundance fitness is reported as -0.025 ± 0.074. G14K showed an abundance fitness of -0.06 ± 0.061. S24L gave an abundance fitness of -0.002 ± 0.033. S24A showed an abundance fitness of -0.011 ± 0.055. Work on S24M yielded an abundance fitness of -0.019 ± 0.055. With S24N the abundance fitness was 0.004 ± 0.081. Work on S24Y yielded an abundance fitness of -0.016 ± 0.084. Work on S24Q yielded an abundance fitness of -0.004 ± 0.055. In the case of M1E, the abundance fitness is reported as 0.008 ± 0.053. Variant M1F has an abundance fitness of -0.025 ± 0.065. Work on Q45D yielded an abundance fitness of -0.104 ± 0.085. For Q45H, the abundance fitness was -0.036 ± 0.077. E21I gave an abundance fitness of 0.034 ± 0.069. In the case of P58L, the abundance fitness is reported as -0.018 ± 0.028. P58Y gave an abundance fitness of -0.066 ± 0.073. P58C showed an abundance fitness of -0.083 ± 0.059. Variant G44C has an abundance fitness of 0.005 ± 0.052. Work on G44I yielded an abundance fitness of -0.567 ± 0.077. G44A gave an abundance fitness of -0.049 ± 0.037. In the case of G44W, the abundance fitness is reported as -0.111 ± 0.033. Variant G44T has an abundance fitness of -0.093 ± 0.052. With I51E the abundance fitness was -0.026 ± 0.048. I51Y gave an abundance fitness of 0.037 ± 0.089. I51P gave an abundance fitness of -0.023 ± 0.05. For I51H, the abundance fitness was -0.019 ± 0.082. I51K gave an abundance fitness of -0.026 ± 0.05. V28P gave an abundance fitness of -0.693 ± 0.088. Variant V28I has an abundance fitness of -0.048 ± 0.05. With V28W the abundance fitness was -0.675 ± 0.036. In the case of V28C, the abundance fitness is reported as 0.017 ± 0.048. F9K gave an abundance fitness of -0.389 ± 0.047. F9G showed an abundance fitness of -0.939 ± 0.09. F9H showed an abundance fitness of -0.567 ± 0.057. With H29V the abundance fitness was -0.506 ± 0.28. With H29R the abundance fitness was -0.281 ± 0.11. Work on H29S yielded an abundance fitness of -0.345 ± 0.14. In the case of H29K, the abundance fitness is reported as -0.197 ± 0.13. For V20D, the abundance fitness was -0.054 ± 0.054. Variant Q59E has an abundance fitness of -0.103 ± 0.041. For Q59G, the abundance fitness was -0.192 ± 0.035. Q59S showed an abundance fitness of -0.01 ± 0.028. Q59C gave an abundance fitness of -0.05 ± 0.061. Variant Q59M has an abundance fitness of -0.011 ± 0.044. Variant V64C has an abundance fitness of 0.032 ± 0.07. Work on V64Y yielded an abundance fitness of -0.054 ± 0.059. V64L gave an abundance fitness of -0.015 ± 0.038. In the case of V64D, the abundance fitness is reported as -0.057 ± 0.072. With G4C the abundance fitness was -0.905 ± 0.042. For G4A, the abundance fitness was -0.117 ± 0.025. Variant G4D has an abundance fitness of -0.891 ± 0.038. G4Y gave an abundance fitness of -0.81 ± 0.041. For K7M, the abundance fitness was -0.072 ± 0.049. With K7I the abundance fitness was 0.02 ± 0.052. Variant K7D has an abundance fitness of -0.199 ± 0.048. Work on N10P yielded an abundance fitness of -0.792 ± 0.053. Variant N10W has an abundance fitness of -0.122 ± 0.037. Variant N10T has an abundance fitness of -0.118 ± 0.051. Work on L66Q yielded an abundance fitness of 0.021 ± 0.057. For F17G, the abundance fitness was -0.236 ± 0.037. In the case of F17Y, the abundance fitness is reported as -0.192 ± 0.048. F17P gave an abundance fitness of -0.977 ± 0.061. Variant F17C has an abundance fitness of -0.18 ± 0.052. Work on S48T yielded an abundance fitness of 0.002 ± 0.047. N55E gave an abundance fitness of -0.043 ± 0.31. In the case of N55D, the abundance fitness is reported as -0.309 ± 0.28. N55A showed an abundance fitness of -0.035 ± 0.16. Work on N55S yielded an abundance fitness of 0.049 ± 0.092. For D25T, the abundance fitness was -0.073 ± 0.041. In the case of D25F, the abundance fitness is reported as -0.251 ± 0.054. In the case of D25Q, the abundance fitness is reported as -0.073 ± 0.054. With D25N the abundance fitness was -0.047 ± 0.08. Variant Q34N has an abundance fitness of 0.053 ± 0.11. Work on Q34C yielded an abundance fitness of -0.071 ± 0.066. Work on Q34L yielded an abundance fitness of -0.02 ± 0.031. Variant Q34I has an abundance fitness of -0.169 ± 0.087. Work on Q34G yielded an abundance fitness of -0.005 ± 0.041. Variant E43G has an abundance fitness of 0.04 ± 0.04. In the case of E43C, the abundance fitness is reported as 0.032 ± 0.092. With E43M the abundance fitness was 0.022 ± 0.056. Work on A61H yielded an abundance fitness of -0.004 ± 0.072. For A61M, the abundance fitness was 0.022 ± 0.21. Work on A61T yielded an abundance fitness of -0.072 ± 0.039. Variant A61I has an abundance fitness of 0.01 ± 0.079. In the case of K39I, the abundance fitness is reported as -0.133 ± 0.064. Work on T31S yielded an abundance fitness of -0.011 ± 0.032. Work on T31G yielded an abundance fitness of -0.079 ± 0.044. Variant T31M has an abundance fitness of -0.13 ± 0.044. T40H gave an abundance fitness of -0.064 ± 0.047. With T40I the abundance fitness was -0.032 ± 0.044. N11H gave an abundance fitness of -0.027 ± 0.07. Variant V52P has an abundance fitness of -0.514 ± 0.048. Work on V52E yielded an abundance fitness of -0.004 ± 0.037. For R3I, the abundance fitness was -0.025 ± 0.081. Variant R3Q has an abundance fitness of -0.021 ± 0.041. R3Y showed an abundance fitness of 0.027 ± 0.065. Variant R3F has an abundance fitness of -0.003 ± 0.062. R3T gave an abundance fitness of -0.024 ± 0.059. For K5Q, the abundance fitness was -0.056 ± 0.045. Work on K5D yielded an abundance fitness of -0.156 ± 0.082. G23Q showed an abundance fitness of 0.012 ± 0.055. In the case of G23H, the abundance fitness is reported as -0.053 ± 0.08. In the case of G23Y, the abundance fitness is reported as -0.061 ± 0.048.
